The values below come from US20090214507A1, “METHOD OF TREATING PREVENTING, INHIBITING OR REDUCING DAMAGE TO CARDIAC TISSUE” (RegeneRx Biopharmaceuticals, Inc., priority 2004, published 2009).

This experiment has as its target T1, PINCH (Mus musculus, UniProt Q99JW4).
T1 construct: made in house; host or cells: T7 phage amplified in E. coli BLT5615
The experiment can be described thus: phage display ELISA and coimmunoprecipitation with PINCH. Type of experiment: binding. As to conditions: ELISA; coimmunoprecipitation in transfected cultured cells. From the text:
To investigate the potential mechanisms through which thymosin β4 might be influencing cell migration and survival events, thymosin β4 interacting proteins were searched. The amino-terminus of thymosin β4 was fused with affi-gel beads resulting in exposure of the carboxy-terminus that allowed identification of previously unknown interacting proteins but prohibited association with actin. An E9.5-12.5 mouse heart T7 phage cDNA library was synthesized and screened by phage display and thymosin β4-interacting clones were enriched and confirmed by ELISA. […] PINCH and integrin linked kinase (ILK) interact directly with one another and indirectly with the actin cytoskeleton as part of a larger complex involved in cell-extracellular matrix interactions known as the focal adhesion complex. PINCH and ILK are required for cell motility and for cell survival, in part by promoting phosphorylation of the serine-threonine kinase Akt/protein kinase B, a central kinase in survival and growth signaling pathways. […] The PINCH interaction with thymosin β4 mapped to the fourth and fifth LIM domains of PINCH while the amino terminal ankryin domain of ILK was sufficient for thymosin β4 interaction.
300 ul of Affi-Gel 15 (Bio-Rad Laboratories) was coupled with 12 ug of synthesized thymosin β4 protein (RegeneRx) following the manufacturers manual, likely via amino terminal lysine residues. […]
Background: An ELISA detects its analyte on a solid surface through an enzyme-linked reagent.

T1 sequence (Q99JW4 whole entry): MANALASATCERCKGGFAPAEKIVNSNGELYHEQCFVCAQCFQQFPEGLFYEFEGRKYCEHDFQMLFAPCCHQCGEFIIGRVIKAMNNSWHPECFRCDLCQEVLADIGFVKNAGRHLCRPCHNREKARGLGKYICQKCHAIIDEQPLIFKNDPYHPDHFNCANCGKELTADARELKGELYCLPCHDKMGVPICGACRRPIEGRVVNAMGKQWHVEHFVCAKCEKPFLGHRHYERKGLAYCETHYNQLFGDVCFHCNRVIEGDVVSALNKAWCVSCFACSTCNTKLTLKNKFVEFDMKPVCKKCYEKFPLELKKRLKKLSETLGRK

As for thymosin β4, the “interaction with PINCH” value is on record as “interacted with thymosin β4 in the absence of actin”.
